The values that follow come from paper PMC12802937 (Nucleic Acids Research, 2026).

The target of the experiment is T1, Bre1, 6× histidine tag, purified (budding yeast, UniProt Q07457 1-700).
T1 construct: Bre1, budding yeast; the BRE1 gene inserted into pET26b; source: E. coli BL21 Rosetta (DE3), purified (Ni-NTA, heparin, gel filtration)
T1 sequence (looked up): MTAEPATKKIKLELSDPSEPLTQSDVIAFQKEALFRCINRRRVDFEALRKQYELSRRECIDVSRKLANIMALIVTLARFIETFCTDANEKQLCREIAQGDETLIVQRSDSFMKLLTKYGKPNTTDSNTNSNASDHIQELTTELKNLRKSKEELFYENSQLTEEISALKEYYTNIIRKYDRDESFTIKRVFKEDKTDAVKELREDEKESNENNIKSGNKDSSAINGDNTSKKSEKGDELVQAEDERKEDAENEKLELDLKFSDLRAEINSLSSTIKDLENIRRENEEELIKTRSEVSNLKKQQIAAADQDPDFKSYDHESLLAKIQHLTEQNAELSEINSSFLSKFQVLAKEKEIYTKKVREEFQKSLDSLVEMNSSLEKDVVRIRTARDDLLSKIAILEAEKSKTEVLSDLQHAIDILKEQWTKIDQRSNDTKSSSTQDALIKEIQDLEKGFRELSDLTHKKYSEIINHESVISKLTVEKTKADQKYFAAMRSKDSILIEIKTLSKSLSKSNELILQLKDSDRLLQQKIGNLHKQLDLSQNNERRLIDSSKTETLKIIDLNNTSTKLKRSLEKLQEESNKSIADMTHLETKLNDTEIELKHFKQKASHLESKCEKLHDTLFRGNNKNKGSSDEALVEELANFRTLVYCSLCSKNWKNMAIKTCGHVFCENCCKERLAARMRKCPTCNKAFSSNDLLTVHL
Put plainly: co-sedimentation; 5%–45% sucrose gradient, purified Bre1, Lge1 or their mixture; 20 mM TRIS (pH 7.5), 10 mM potassium chloride, 5 mM magnesium chloride; 27 000 rpm, 15 h, 4°C. As to conditions: both partners purified.

B1: Lge1, 6× histidine tag, purified (natural protein, budding yeast, UniProt Q02796 1-332, looked up)
chain: MSGYTGNNYSRYSSTPPRQRGGYHHARRSRGGAGGSYYRGGNASYGARYNSDYEQPPQEGDLRQTGAYYRNGYTDTRPYYSANSRHYQAQPSPRYNNGTNSYHLPQRGNSQDTNGRTTSASQEDNDEKRVKSRYRNMQADHPRQQPMSVGSTSSRNGSSGNSSTSSTSNGLPPPPSVSSITNNRSYHSSAYPYSSSHTYNNYHHRETPPPPPSNGYYAKGYPVHVPENRSNSDGSSSSVVKKKRILDMKDSPFIYLTDFDKNVKKTNNTESECEKAREVFKESDSIDSALEELNLKINSNELELRLLNNQCDKHALNIQLTQEKLDSLLLMQ
notes: Lge1, budding yeast; source: E. coli BL21 Rosetta (DE3), purified (Ni-NTA in 8 M urea, urea removed by washing)
As to B1, the binding result was “binds”.
